T1: chimeric bovine EC1-Fcγ2R/human EC2-CD89 (bovine/human chimera)
T1 chain: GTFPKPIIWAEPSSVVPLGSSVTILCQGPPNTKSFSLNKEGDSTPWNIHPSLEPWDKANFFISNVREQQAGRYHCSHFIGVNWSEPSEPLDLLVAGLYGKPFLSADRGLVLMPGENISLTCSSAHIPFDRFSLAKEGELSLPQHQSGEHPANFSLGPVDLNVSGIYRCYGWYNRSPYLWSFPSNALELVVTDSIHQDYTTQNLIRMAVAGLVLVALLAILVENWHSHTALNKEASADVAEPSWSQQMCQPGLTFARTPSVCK

T2: chimeric human/cynomolgus monkey CD89-hotspots (human/cynomolgus monkey chimera, UniProt P24071 22-287)
T2 construct: also called ΔThr58, Gln59; ΔArg73, Arg74, Lys76
T2 chain: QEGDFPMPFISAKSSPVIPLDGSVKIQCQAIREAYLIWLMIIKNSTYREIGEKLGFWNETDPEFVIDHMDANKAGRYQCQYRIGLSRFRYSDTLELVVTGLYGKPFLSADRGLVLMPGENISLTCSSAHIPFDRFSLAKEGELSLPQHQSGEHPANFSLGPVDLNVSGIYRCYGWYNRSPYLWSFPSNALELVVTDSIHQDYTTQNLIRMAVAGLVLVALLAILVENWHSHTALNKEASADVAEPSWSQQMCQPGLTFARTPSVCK

T3: chimeric human/cynomolgus monkey CD89-I (human/cynomolgus monkey chimera, UniProt P24071 22-287)
T3 construct: also called ΔGln22-Lys46 human EC1-CD89; I (22-46)
T3 chain: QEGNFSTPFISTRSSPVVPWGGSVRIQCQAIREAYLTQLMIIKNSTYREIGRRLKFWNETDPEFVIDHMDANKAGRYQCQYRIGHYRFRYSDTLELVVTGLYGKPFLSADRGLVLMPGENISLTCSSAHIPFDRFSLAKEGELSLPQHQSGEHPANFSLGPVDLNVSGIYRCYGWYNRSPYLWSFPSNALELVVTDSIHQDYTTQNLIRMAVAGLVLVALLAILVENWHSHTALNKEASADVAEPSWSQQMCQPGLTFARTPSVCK

T4: chimeric human/cynomolgus monkey CD89-II (human/cynomolgus monkey chimera, UniProt P24071 22-287)
T4 construct: also called ΔIle47-Ile71 human EC1-CD89; II (47-71)
T4 chain: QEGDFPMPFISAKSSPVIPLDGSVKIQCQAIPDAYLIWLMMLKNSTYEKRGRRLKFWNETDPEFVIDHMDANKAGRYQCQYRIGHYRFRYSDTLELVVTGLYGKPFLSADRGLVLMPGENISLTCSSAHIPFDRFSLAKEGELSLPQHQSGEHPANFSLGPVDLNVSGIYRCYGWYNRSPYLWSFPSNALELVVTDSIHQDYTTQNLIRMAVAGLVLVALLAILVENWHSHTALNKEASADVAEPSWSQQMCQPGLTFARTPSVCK

T5: chimeric human/cynomolgus monkey CD89-III (human/cynomolgus monkey chimera, UniProt P24071 22-287)
T5 construct: also called ΔGly72-Gly96 human EC1-CD89; III (72-96)
T5 chain: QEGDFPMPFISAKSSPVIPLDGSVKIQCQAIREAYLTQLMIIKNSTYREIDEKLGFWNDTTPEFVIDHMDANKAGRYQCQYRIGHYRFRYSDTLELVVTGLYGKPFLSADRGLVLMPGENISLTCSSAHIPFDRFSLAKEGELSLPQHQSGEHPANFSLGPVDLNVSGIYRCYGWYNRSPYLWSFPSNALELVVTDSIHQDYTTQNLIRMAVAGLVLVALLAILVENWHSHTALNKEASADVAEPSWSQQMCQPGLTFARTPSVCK

T6: chimeric human/cynomolgus monkey CD89-IV (human/cynomolgus monkey chimera, UniProt P24071 22-287)
T6 construct: also called ΔArg97-Gly121 human EC1-CD89
T6 chain: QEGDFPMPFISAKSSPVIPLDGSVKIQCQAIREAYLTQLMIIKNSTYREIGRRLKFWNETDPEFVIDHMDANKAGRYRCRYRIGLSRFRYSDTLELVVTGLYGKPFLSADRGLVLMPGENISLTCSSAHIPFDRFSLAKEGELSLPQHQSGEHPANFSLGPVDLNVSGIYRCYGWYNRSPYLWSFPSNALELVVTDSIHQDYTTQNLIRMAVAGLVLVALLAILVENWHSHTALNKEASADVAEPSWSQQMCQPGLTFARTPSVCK

T7: membrane full-length cynomolgus monkey CD89 (cynomolgus monkey)
T7 construct: also called cynoCD89; cynomolgus EC1-CD89
T7 chain: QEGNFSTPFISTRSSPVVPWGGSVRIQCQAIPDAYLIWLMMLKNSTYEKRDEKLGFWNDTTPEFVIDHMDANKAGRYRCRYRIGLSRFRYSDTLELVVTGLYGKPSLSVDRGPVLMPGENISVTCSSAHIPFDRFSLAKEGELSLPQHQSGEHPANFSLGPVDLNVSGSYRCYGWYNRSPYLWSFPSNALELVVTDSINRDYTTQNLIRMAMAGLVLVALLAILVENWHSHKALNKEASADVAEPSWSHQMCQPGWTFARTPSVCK


Legend:
[1] = target: T1, chimeric bovine EC1-Fcγ2R/human EC2-CD89; assay: FACS, transiently transfected HEK293F
Procedure: After 48 hours and/or 72 hours, the binding of CD89/IgA blocking mouse anti-human CD89 antibodies to aforementioned chimeric human/bovine receptors on transfected cells was analyzed by FACS analysis. To this end, transient transfected HEK293F cells were put at 10×10⁶ cells/mL in ice-chilled phosphate-buffered saline containing 0.1% BSA (Sigma)/0.05% NaN₃ (PBS/BSA/NaN₃) supplemented with 50 μg/mL human IgGs (blocking Fcγ receptors; Sigma) for 10 minutes at 4° C. Then, 10 μL/tube (ie, 0.1×10⁶ cells) of these cells were incubated with or without 100 μL purified mouse anti-human CD89 antibody at 10 μg/mL (in PBS/BSA/NaN₃) for 30 minutes at 4° C. […] After extensive washing in PBS/BSA/NaN₃, cells were subsequently incubated with 1:200 diluted PE-conjugated goat anti-mouse IgG Fey-specific antibodies (Jackson ImmunoResearch) for 30 minutes at 4° C. After extensive washing in PBS/BSA/NaN₃, cells were fixed in 2% formaldehyde in PBS/BSA/NaN₃ for 30 minutes at 4° C.

[2] = target: T8, membrane-bound full-length human CD89 (human, UniProt P24071 22-287); assay: FACS, HEK293F-huCD89, half-maximum binding
T8 construct: on stably or transiently transfected HEK293F cells; also called FcalphaRI; huCD89
Procedure: Then, 10 μL/tube (ie, 0.1×10⁶ cells) of these cells were incubated with or without 100 μL titrated (in PBS/BSA/NaN₃) purified chimeric mouse/human anti-human CD89 antibody/tube for 30 minutes at 4° C. […] After extensive washing in PBS/BSA/NaN₃, cells were subsequently incubated with 1:200 diluted PE-conjugated goat anti-human IgG Fey-specific antibodies (Jackson ImmunoResearch) for 30 minutes at 4° C. After extensive washing in PBS/BSA/NaN₃, cells were fixed in 2% formaldehyde in PBS/BSA/NaN₃ for 30 minutes at 4° C.

[3] = target: T9, recombinant C-terminal polyhistidine-tagged human (extracellular) CD89 (human, UniProt P24071 22-227); assay: ELISA, coated rhuCD89, half-maximum binding
T9 construct: extracellular domain; bought (Sino Biological); also called rhuCD89
Procedure: After extensive washing with PBS/0.05% Tween 20, plates were blocked with PBS/0.05% Tween 20/1% BSA (Roche) for 1 hour at RT. Subsequently, plates were incubated with 50 μL titrated (in block buffer) purified mouse anti-human CD89 antibody/well for 1 hour at RT. […] After extensive washing in PBS/0.05% Tween 20, binding of antibodies on rhuCD89 was determined with 1:5,000 diluted horseradish peroxidase (HRP)-conjugated goat anti-mouse IgG Fey-specific antibodies (Jackson ImmunoResearch) for 1 hour at RT, followed by a ready-to-use solution of TMB substrate (Invitrogen) for colorimetric detection.
After extensive washing with PBS/0.05% Tween 20, plates were blocked with PBS/0.05% Tween 20/1% BSA (Roche) for 1 hour at RT. Subsequently, plates were incubated with and without 50 μL titrated (in block buffer) purified chimeric mouse/human anti-human CD89 antibody/well for 1 hour at RT. After extensive washing in PBS/0.05% Tween 20, binding of antibodies on rhuCD89 was determined with 1:5,000 diluted horseradish peroxidase (HRP)-conjugated goat anti-human IgG Fey-specific antibodies (Jackson ImmunoResearch) for 1 hour at RT, followed by a ready-to-use solution of TMB substrate (Invitrogen) for colorimetric detection.

[4] = target: T2, chimeric human/cynomolgus monkey …; assay: FACS, transiently transfected HEK293F; - = no binding
Procedure: (§1) After 48 hours, the binding of CD89/IgA blocking mouse anti-human CD89 antibodies to aforementioned chimeric human CD89/cynomolgus monkey CD89 constructs on transfected cells was analyzed by FACS analysis. To this end, transient transfected HEK293F cells were put at 10×10⁶ cells/mL in ice-chilled phosphate-buffered saline containing 0.1% BSA (Sigma)/0.05% NaN₃ (PBS/BSA/NaN₃) supplemented with 50 μg/mL human IgGs (blocking Fcγ receptors; Sigma) for 10 minutes at 4° C. Then, 10 μL/tube (ie, 0.1×10⁶ cells) of these cells were incubated with or without 100 μL purified mouse anti-human CD89 antibody at 10 μg/mL (in PBS/BSA/NaN₃) for 30 minutes at 4° C. […] After extensive washing in PBS/BSA/NaN₃, cells were subsequently incubated with 1:200 diluted PE-conjugated goat anti-mouse IgG Fey-specific antibodies (Jackson ImmunoResearch) for 30 minutes at 4° C. After extensive washing in PBS/BSA/NaN₃, cells were fixed in 2% formaldehyde in PBS/BSA/NaN₃ for 30 minutes at 4° C.

[5] = target: T8, membrane-bound full-length human CD89; assay: FACS, HEK293F-huCD89, unlabeled Ab 10 ug/mL first; competitor A3-PE
Procedure: (§2) Then, 10 μL/tube (ie, 0.1×10⁶ cells) of these cells were incubated with or without 100 μL purified mouse anti-human CD89 antibody at 10 μg/mL (in PBS/BSA/NaN₃) for 30 minutes at 4° C. […] After extensive washing in PBS/BSA/NaN₃, cells were fixed in 2% formaldehyde in PBS/BSA/NaN₃ for 30 minutes at 4° C.

[6] = target: T8, membrane-bound full-length human CD89; assay: FACS, HEK293F-huCD89, unlabeled Ab 10 ug/mL first; competitor A59-PE
Procedure: as §2

[7] = target: T8, membrane-bound full-length human CD89; assay: FACS, HEK293F-huCD89, unlabeled Ab 10 ug/mL first; competitor MIP8a-PE
Procedure: as §2

[8] = target: T3, chimeric human/cynomolgus monkey CD89-I; assay: FACS, transiently transfected HEK293F, 10 ug/mL; ++ strong, + intermediate, -/+ weak
Procedure: as §1

[9] = target: T4, chimeric human/cynomolgus monkey CD89-II; assay: as above
Procedure: as §1

[10] = target: T5, chimeric human/cynomolgus monkey …; assay: as above
Procedure: as §1

[11] = target: T6, chimeric human/cynomolgus monkey CD89-IV; assay: as above
Procedure: as §1

[12] = target: T8, membrane-bound full-length human CD89; assay: FACS, HEK293F-huCD89, 4C +NaN3, Ab 10 ug/mL then IgA; competitor non-aggr serum IgA
Procedure: Then, 10 μL/tube (ie, 0.1×10⁶ cells) of these cells were incubated with or without 50 μL purified mouse anti-human CD89 antibody at 20 μg/mL (in PBS/BSA/NaN₃) for 30 minutes at 4° C. […] After extensive washing in PBS/BSA/NaN₃, 1:200 diluted PE-conjugated streptavidin (Jackson ImmunoResearch) was added, and incubated for 30 minutes at 4° C. After extensive washing in PBS/BSA/NaN₃, cells were fixed in 2% formaldehyde in PBS/BSA/NaN₃ for 30 minutes at 4° C.

[13] = target: T8, membrane-bound full-length human CD89; assay: FACS, HEK293F-huCD89, 4C +NaN3, IgA then Ab 10 ug/mL; pre-bound heat-aggr serum IgA
Procedure: (§3) After extensive washing in PBS/BSA/NaN₃, 1:200 diluted PE-conjugated streptavidin (Jackson ImmunoResearch) was added, and incubated for 30 minutes at 4° C. After extensive washing in PBS/BSA/NaN₃, cells were fixed in 2% formaldehyde in PBS/BSA/NaN₃ for 30 minutes at 4° C.

[14] = target: T8, membrane-bound full-length human CD89; assay: FACS, HEK293F-huCD89, 4C +NaN3, Ab 10 ug/mL then IgA; competitor heat-aggr serum IgA
Procedure: To mimic human IgA immune complexes, human (serum-derived) IgA (Bethyl Laboratories) was heated at 63° C. for 30 minutes, and cooled down to RT followed by centrifugation at 4° C. 12000×g for 2 minutes to remove any insoluble protein precipitation.
Then, 10 μL/tube (ie, 0.1×10⁶ cells) of these cells were incubated with or without 50 μL purified mouse anti-human CD89 antibody at 20 μg/mL (in PBS/BSA/NaN₃) for 30 minutes at 4° C.

[15] = target: T8, membrane-bound full-length human CD89; assay: FACS, HEK293F-huCD89, 24 h 37C no NaN3, IgA then Ab 10 ug/mL; pre-bound heat-aggr serum IgA
Procedure: as §3

[16] = target: T8, membrane-bound full-length human CD89; assay: FACS, HEK293F-huCD89, 24 h 37C no NaN3, Ab 10 ug/mL then IgA; competitor heat-aggr serum IgA
Procedure: as §3

[17] = target: T4, chimeric human/cynomolgus monkey CD89-II; assay: FACS, transiently transfected HEK293F; - = no binding
Procedure: as §1

[18] = target: T2, chimeric human/cynomolgus monkey …; assay: FACS, transiently transfected HEK293F, 10 ug/mL; ++ strong, + intermediate, -/+ weak
Procedure: as §1

[19] = target: T8, membrane-bound full-length human CD89; assay: FACS, HEK293F-huCD89, 4C +NaN3, IgA then Ab 10 ug/mL; pre-bound non-aggr serum IgA
Procedure: After this (ie, without washing), 50 μL purified mouse anti-human CD89 antibody at 20 μg/mL (in PBS/BSA/NaN₃) was added to these cells, and incubated for another 30 minutes at 4° C. […] After extensive washing in PBS/BSA/NaN₃, 1:200 diluted PE-conjugated streptavidin (Jackson ImmunoResearch) was added, and incubated for 30 minutes at 4° C. After extensive washing in PBS/BSA/NaN₃, cells were fixed in 2% formaldehyde in PBS/BSA/NaN₃ for 30 minutes at 4° C.

[20] = target: T8, membrane-bound full-length human CD89; assay: FACS, HEK293F-huCD89, 24 h 37C no NaN3, IgA then Ab 10 ug/mL; pre-bound non-aggr serum IgA
Procedure: as §3

[21] = target: T8, membrane-bound full-length human CD89; assay: FACS, HEK293F-huCD89, 24 h 37C no NaN3, Ab 10 ug/mL then IgA; competitor non-aggr serum IgA
Procedure: as §3

[22] = target: T7, membrane full-length cynomolgus monkey …; assay: FACS, transiently transfected HEK293F; - = no binding
Procedure: as §1

| binding result [1] | EC50 [2] | EC50 [3] | % blocking of A3-PE binding [5] | % blocking of A59-PE binding [6] | % blocking of MIP8a-PE binding [7] | binding result [8] | binding result [9] | binding result [10] | binding result [11] | percent IgA binding [12] | percent IgA binding [13] | percent IgA binding [14] | percent IgA binding (remaining) [15] | percent IgA binding (remaining) [16] | binding result [18] | percent IgA binding [19] | percent IgA binding (remaining) [20] | percent IgA binding (remaining) [21] | Binder | further results |
| --- | --- | --- | --- | --- | --- | --- | --- | --- | --- | --- | --- | --- | --- | --- | --- | --- | --- | --- | --- | --- |
| no binding (tested: 10 µg/mL) | 0.484 µg/mL | 0.029 µg/mL | < 25% | < 25% | > 90% | binds |  | binds | binds | 0 to 25% |  | 0 to 25% | 0 to 25% | 0 to 25% | binds | 26 to 50% | 0 to 25% | 0 to 25% | mouse anti-human CD89-specific antibody 30C7 (antibody, mouse IgG1, V domains shown) VH: QVQLQQSGPELVRPGVSVKISCKGSGYTFTDYVMHWVKQSHAKSLEWIGVISTYSGNTNYNQKFKGKATMTVDKSSSTAYMELARLTSEDSAIYYCARESDGYYFDYWGQGTTLTVSS VL: DIVMSQSPSSLAVSAGEKVTMSCKSSQSLLNSRTRKNYLAWYQQKPGQSPKLLIYWASTRESGVPDRFTGSGSGTDFTLTISSVQAEDLAVYYCKQSYNLMYTFGGGTKLEIK | binding result [17]: no binding (tested: 10 µg/mL) |
| no binding (tested: 10 µg/mL) |  |  |  |  | > 90% | binds | binds | binds |  | 0 to 25% | 0 to 25% | 0 to 25% | 0 to 25% | 0 to 25% | binds | 0 to 25% | 0 to 25% | 0 to 25% | mouse anti-human CD89-specific antibody 26D6 (antibody, mouse IgG1, V domains shown, printed as 26B6 in some paragraphs; also called 26B6) VH: QIQLVQSGPELKKPGETVKISCKASGYTLTKYGMNWVKQAPGKGLKWMGWINTYTGEPTYADDFKGRFAFSLETSASTAYLQINNLKNEDTATYFCASLPLFGRDSFAYWGQGTLVTVSA VL: not shown | binding result [22]: no binding (tested: 10 µg/mL) |

More lines, now with the values behind:

| Binder | binding result [1] | EC50 [2] | EC50 [3] | % blocking of A3-PE binding [5] | % blocking of A59-PE binding [6] | % blocking of MIP8a-PE binding [7] | binding result [8] | binding result [9] | binding result [10] | binding result [11] | percent IgA binding [12] | percent IgA binding [13] | percent IgA binding [14] | percent IgA binding (remaining) [15] | percent IgA binding (remaining) [16] | binding result [18] | percent IgA binding [19] | percent IgA binding (remaining) [20] | percent IgA binding (remaining) [21] | further results |
| --- | --- | --- | --- | --- | --- | --- | --- | --- | --- | --- | --- | --- | --- | --- | --- | --- | --- | --- | --- | --- |
| mouse anti-human CD89-specific antibody 16D6 (antibody, mouse IgG1, V domains shown, also called 16D16) VH: QVQLQQSGAELMKPGASVKISCKATGYTFSTYWIEWVKQRPGHGLEWIGEILPGSGSANYNEKFKGKATFTADTSSNTAYMQLSSLTFEDSAVYYCAKGFGSPYYYAMDYWGQGTSVTVSS VL: EIVLTQSPALMAASPGEKVTITCSVSSSISSSNLHWYQQKSETSPKPWIYGTSKLASGVPVRFSGSGSGTSYSLTISNMEAEDAATYYCQQWSSFPLTFGGGTKLEIK | no binding (tested: 10 µg/mL) | 1.62 µg/mL | 0.119 µg/mL | < 25% | < 25% | < 25% | binds | binds | binds | binds | 0 to 25% | 76 to 125% | 0 to 25% | 76 to 125% | 76 to 125% |  |  |  |  | binding result [4]: no binding (tested: 10 µg/mL) |
| mouse anti-human CD89-specific antibody 9H7 (antibody, mouse IgG1, V domains shown) VH: QIQLVQSGPELKKPGETVKISCKASGYTFKNYGMNWVKQAPGKGLKWMAWINTYTGEPTHTDDFKGRFVFSLETSASTAYLQINNLKNEDTATYFCARWGLGTTEEAARDYWGQGTTLTVSS VL: not shown |  |  |  |  |  | > 90% |  |  |  |  | 0 to 25% | 0 to 25% | 0 to 25% | 0 to 25% | 0 to 25% |  | 0 to 25% | 0 to 25% | 0 to 25% |  |

— patent publication US20210388084A1 (JJP BIOLOGICS SP Z O O, published 2021)
